Several values for one entry are separate records, joined by “and”; a condition that tells them apart may be missing. Equal values may be shown once. Read-outs that look alike come from different tables or passages of the source.
Tests used:
[1] = target: Bovine recombinant PrP (bovine); assay: direct ELISA, coated denatured rPrP 1 ng/assay
[2] = target: Deer recombinant PrP (deer); assay: direct ELISA, coated denatured rPrP 1 ng/assay
[3] = target: Human recombinant PrP (human); assay: direct ELISA, coated denatured rPrP 1 ng/assay
[4] = target: Mouse recombinant PrP (mouse); assay: direct ELISA, coated denatured rPrP 1 ng/assay
[5] = target: Sheep recombinant PrP (sheep); assay: direct ELISA, coated denatured rPrP 1 ng/assay
[6] = target: Bovine recombinant PrP (bovine); assay: direct ELISA, coated denatured rPrP 0.1 ng/assay
[7] = target: Deer recombinant PrP (deer); assay: direct ELISA, coated denatured rPrP 0.1 ng/assay
[8] = target: Human recombinant PrP (human); assay: direct ELISA, coated denatured rPrP 0.1 ng/assay
[9] = target: Mouse recombinant PrP (mouse); assay: direct ELISA, coated denatured rPrP 0.1 ng/assay
[10] = target: Sheep recombinant PrP (sheep); assay: direct ELISA, coated denatured rPrP 0.1 ng/assay
Mouse BH PrP^Sc (mouse) [11] = assay: direct ELISA, coated denatured mouse BH PrP^Sc 1 mg BH/assay
Mouse BH PrP^Sc (mouse) [12] = assay: direct ELISA, coated denatured mouse BH PrP^Sc 0.1 mg BH/assay
[13] = target: Syrian hamster PrP^Sc (scrapie-infected SHa brain homogenate) (Syrian hamster)
[14] = target: Syrian hamster PrP^C (normal SHa brain homogenate) (Syrian hamster); assay: sandwich ELISA, capture 3F4; normal SHa BH, PK 0 ug/mL, NaOH-denatured
[15] = target: Syrian hamster PrP^C (normal SHa brain homogenate) (Syrian hamster); assay: sandwich ELISA, capture 3F4; normal SHa BH, PK 5 ug/mL, NaOH-denatured
[16] = target: Syrian hamster PrP^C (normal SHa brain homogenate) (Syrian hamster); assay: sandwich ELISA, capture 3F4; normal SHa BH, PK 10 ug/mL, NaOH-denatured
[17] = target: Syrian hamster PrP^C (normal SHa brain homogenate) (Syrian hamster); assay: sandwich ELISA, capture 3F4; normal SHa BH, PK 20 ug/mL, NaOH-denatured
[18] = target: Syrian hamster PrP^C (normal SHa brain homogenate) (Syrian hamster); assay: sandwich ELISA, capture 3F4; normal SHa BH, PK 50 ug/mL, NaOH-denatured
[19] = target: Syrian hamster PrP^C (normal SHa brain homogenate) (Syrian hamster); assay: sandwich ELISA, capture 3F4; normal SHa BH, PK 100 ug/mL, NaOH-denatured
[20] = target: Syrian hamster PrP^C (normal SHa brain homogenate) (Syrian hamster); assay: sandwich ELISA, capture 3F4; normal SHa BH, PK 25 ug/mL, GdnHCl-denatured
[21] = target: Syrian hamster PrP^C (normal SHa brain homogenate) (Syrian hamster); assay: sandwich ELISA, capture POM2; normal SHa BH, PK 25 ug/mL, GdnHCl-denatured
[22] = target: Syrian hamster PrP^C (normal SHa brain homogenate) (Syrian hamster); assay: sandwich ELISA, capture 3F4; normal SHa BH, trypsin 0 ug/mL, NaOH-denatured
[23] = target: Syrian hamster PrP^C (normal SHa brain homogenate) (Syrian hamster); assay: sandwich ELISA, capture 3F4; normal SHa BH, trypsin 5 ug/mL, NaOH-denatured
[24] = target: Syrian hamster PrP^C (normal SHa brain homogenate) (Syrian hamster); assay: sandwich ELISA, capture 3F4; normal SHa BH, trypsin 10 ug/mL, NaOH-denatured
[25] = target: Syrian hamster PrP^C (normal SHa brain homogenate) (Syrian hamster); assay: sandwich ELISA, capture 3F4; normal SHa BH, trypsin 20 ug/mL, NaOH-denatured
[26] = target: Syrian hamster PrP^C (normal SHa brain homogenate) (Syrian hamster); assay: sandwich ELISA, capture 3F4; normal SHa BH, trypsin 50 ug/mL, NaOH-denatured
[27] = target: Syrian hamster PrP^Sc (scrapie-infected SHa brain homogenate) (Syrian hamster); assay: sandwich ELISA, capture 3F4; infectious SHa BH, PK 25 ug/mL, GdnHCl-denatured
[28] = target: Syrian hamster PrP^C (normal SHa brain homogenate) (Syrian hamster); assay: sandwich ELISA, capture 3F4; normal SHa BH, trypsin 100 ug/mL, NaOH-denatured
[29] = target: Syrian hamster PrP^C (normal SHa brain homogenate) (Syrian hamster); assay: sandwich ELISA, capture 3F4; normal SHa BH, trypsin 25 ug/mL, GdnHCl-denatured
[30] = target: Syrian hamster PrP^Sc (scrapie-infected SHa brain homogenate) (Syrian hamster); assay: sandwich ELISA, capture POM2; infectious SHa BH, PK 25 ug/mL, GdnHCl-denatured
[31] = target: Syrian hamster PrP^C (normal SHa brain homogenate) (Syrian hamster); assay: sandwich ELISA, capture POM2; normal SHa BH, trypsin 25 ug/mL, GdnHCl-denatured
[32] = target: Syrian hamster PrP^Sc (scrapie-infected SHa brain homogenate) (Syrian hamster); assay: sandwich ELISA, capture 3F4; scrapie-infected SHa BH, PK 0 ug/mL, NaOH-denatured
[33] = target: Syrian hamster PrP^Sc (scrapie-infected SHa brain homogenate) (Syrian hamster); assay: sandwich ELISA, capture 3F4; scrapie-infected SHa BH, PK 5 ug/mL, NaOH-denatured

mAb to prion BDI115 (antibody)
RLU [1]: 177 RLU
RLU [2]: 160 RLU
RLU [3]: 74.3 RLU
RLU [4]: 86.7 RLU
RLU [5]: 104 RLU
RLU [6]: 59.1 RLU
RLU [7]: 105 RLU
RLU [8]: 48 RLU
RLU [9]: 54.7 RLU
RLU [10]: 108 RLU
RLU (Mouse BH PrP^Sc (mouse) [11]): 116 RLU
RLU (Mouse BH PrP^Sc (mouse) [12]): 119 RLU

HuM D13 (antibody)
RLU [1]: 93.1 RLU
RLU [2]: 130 RLU
RLU [3]: 69.9 RLU
RLU [4]: 294 RLU
RLU [5]: 161 RLU
RLU [6]: 75.1 RLU
RLU [7]: 232 RLU
RLU [8]: 89.5 RLU
RLU [9]: 117 RLU
RLU [10]: 179 RLU
RLU (Mouse BH PrP^Sc (mouse) [11]): 664 RLU
RLU (Mouse BH PrP^Sc (mouse) [12]): 239 RLU

POM17 antibody
RLU [13]: 254 RLU and 381 RLU
RLU [14]: 1680 RLU
RLU [15]: 11.4 RLU
RLU [16]: 7.2 RLU
RLU [17]: 5.5 RLU
RLU [18]: 3.3 RLU
RLU [19]: 2.8 RLU
RLU [20]: 1.7 RLU
RLU [21]: 1.8 RLU
RLU [22]: 1660 RLU
RLU [23]: 8.5 RLU
RLU [24]: 4.5 RLU
RLU [25]: 2.8 RLU
RLU [26]: 2 RLU
RLU [27]: 200 RLU
RLU [28]: 2.6 RLU
RLU [29]: 2 RLU
RLU [30]: 68.4 RLU
RLU [31]: 14.6 RLU
RLU [32]: 3860 RLU
RLU [33]: 2480 RLU

Mouse anti Prion (SAF-32) (antibody)
RLU [1]: 2400 RLU
RLU [2]: 2320 RLU
RLU [3]: 1570 RLU
RLU [4]: 73.3 RLU
RLU [5]: 1440 RLU
RLU [6]: 450 RLU
RLU [7]: 457 RLU
RLU [8]: 285 RLU
RLU [9]: 97.6 RLU
RLU [10]: 294 RLU
RLU (Mouse BH PrP^Sc (mouse) [11]): 551 RLU
RLU (Mouse BH PrP^Sc (mouse) [12]): 176 RLU

Mouse anti Prion (SAF-53) (antibody)
RLU [1]: 145 RLU
RLU [2]: 263 RLU
RLU [3]: 93.5 RLU
RLU [4]: 612 RLU
RLU [5]: 154 RLU
RLU [6]: 76.6 RLU
RLU [7]: 144 RLU
RLU [8]: 85.2 RLU
RLU [9]: 70.8 RLU
RLU [10]: 100 RLU
RLU (Mouse BH PrP^Sc (mouse) [11]): 667 RLU
RLU (Mouse BH PrP^Sc (mouse) [12]): 165 RLU

mAb to prion 7D9 (antibody)
RLU [1]: 961 RLU
RLU [2]: 117 RLU
RLU [3]: 66.1 RLU
RLU [4]: 769 RLU
RLU [5]: 993 RLU
RLU [6]: 149 RLU
RLU [7]: 121 RLU
RLU [8]: 81.4 RLU
RLU [9]: 118 RLU
RLU [10]: 230 RLU
RLU (Mouse BH PrP^Sc (mouse) [11]): 614 RLU
RLU (Mouse BH PrP^Sc (mouse) [12]): 159 RLU

Mouse anti Prion (SAF-83) (antibody)
RLU [1]: 50.8 RLU
RLU [2]: 125 RLU
RLU [3]: 67 RLU
RLU [4]: 2230 RLU
RLU [5]: 115 RLU
RLU [6]: 45.7 RLU
RLU [7]: 122 RLU
RLU [8]: 65.2 RLU
RLU [9]: 181 RLU
RLU [10]: 98.1 RLU
RLU (Mouse BH PrP^Sc (mouse) [11]): 1730 RLU
RLU (Mouse BH PrP^Sc (mouse) [12]): 274 RLU

Source: patent US20100196934A1
